Patent US20240132859A1, “MODIFIED DEHALOGENASE WITH EXTENDED SURFACE LOOP REGIONS” (Promega Corporation, priority 2022, published 2024)

How the values were obtained:
[1] = test system: HeLa cells expressing HiBiT-tagged GAPDH; assay: Complementation-based chimeras transfected into genome edited HeLa cells expressing HiBiT-tagged GAPDH: expression, brightness, BRET; format: cell-based
Method: FIG. 23 A-G. Characterization of transiently expressed complementation-based chimeras incorporating flexible linkers and LgBiT+4 circularly permuted at two alternative sites (i.e., 67/68 or 49/50). Constructs encoding the chimeras were transfected into genome edited HeLa cells expressing HiBiT-tagged GAPDH. Cells were evaluated for expression, brightness, and efficiency of intramolecular BRET to a bound TMR ligand. (A) Structure of the HALOTAG-cpLGBIT chimeras. (B) Expression levels. Lysates from cells labeled with 1 μM HaloTag-TMR ligand were resolved on SDS-PAGE and scanned on a fluorescent imager. Expression levels quantitated using Image J software were normalized to the expression of HaloTag178-cpLgBIT+4 67/68-179. (C) Total luminescence from cells treated with 20 μM fluorofurimazine. (D) Intramolecular BRET efficiencies for cells treated with 500 nM HaloTag-TMR ligand.

[2] = Total luminescence (brightness) of purified fusions and chimeras treated with fluorofurimazine; format: biochemical; details: 6 nM chimeras complemented with 60 nM VS-HiBiT; compared with HT-178(L1-3)cpLgBiT+4 67/68-179
Source text: (§1) FIG. 9A-D. Characteristics of HaloTag-NLuc fusions and chimeras generated by insertion of circularly-permuted NanoLuc (cpNLuc), circularly-permuted thermostable NanoLuc (cptsNLuc), and circularly-permuted thermostable NanoLuc with a point mutation, F164C (cptsNLuc(F164C)) into loops 165 and 180. Fusion and chimeras were expressed in E. coli, purified, and compared for binding kinetics of a chloroalkane-TMR ligand, brightness of luminescence, and efficiency of intramolecular BRET to a bound TMR ligand. (A) Chimera structures (B) Binding kinetics of 2.5 nM chloroalkane-TMR to 20 nM fusions, and chimeras monitored via fluorescent polarization (C) Total luminescence for 6 nM fusions, and chimeras treated with 20 μM fluorofurimazine (D) Intramolecular BRET efficiencies for 6 nM fusions, and chimeras that were labeled with 5-fold molar excess of chloroalkane-TMR and treated with 20 μM fluorofurimazine.
(§2) FIG. 13A-B. Luminescence and BRET efficiencies of HaloTag-LgBiT fusions, and chimeras generated by insertion of LgBiT and circularly-permuted LgBiT (cpLgBiT) into loop 180. […]
(§3) FIG. 19 A-E. Biochemical characterization of chimeras generated by inserting a circularly permuted NanoLuc to HaloTag's loops 180 and 194/195. […] (C) Binding kinetics of 2.5 nM HaloTag-TMR ligand to 20 nM chimeras monitored via fluorescent polarization. […]

[3] = Intramolecular BRET efficiency of purified fusions and chimeras to a bound TMR ligand; format: biochemical; details: 6 nM chimeras complemented with 60 nM VS-HiBiT; compared with HT-178(L1-3)cpLgBiT+4 67/68-179
Source text: as §1, §2, §3

VS-HiBiT peptide = assay: Binding affinity of complementation-based chimeras to VS-HiBiT peptide; details: compared with HT-178(L1-3)cpLgBiT+4 67/68-179
Method: FIG. 22 A-I. Biochemical characterization of complementation-based chimeras incorporating flexible linkers and LgBiT+4 circularly permuted at two alternative sites (i.e., 67/68 or 49/50). (A) Structure of the HALOTAG-cpLGBIT chimeras. (B-C) Influence of flexible linkers on binding kinetics of 2.5 nM HaloTag-TMR ligand to 20 nM chimeras, which were complemented with 200 nM VS-HiBiT. (C-D) Influence of flexible linkers on binding affinity to a VS-HiBiT peptide. (E-F) Total luminescence for 6 nM chimeras complemented with 60 nM VS-HiBiT and treated with 20 μM fluorofurimazine. (G-I) Intramolecular BRET efficiencies for 6 nM chimeras complemented with 60 nM VS-HiBiT and covalently labeled with HaloTag-TMR ligand.
FIG. 25 A-E. Influence of additional LgTrip mutations on biochemical properties of the lead complementation-based chimera HaloTag178(L1-3)-cpLgBiT+4-179. Annotations of the additional mutations are based on a full length non disrupted NanoLuc protein (A) Structure of the HALOTAG-cpLGBIT chimeras (B) Influence of mutations on binding affinities to the VS-HiBiT peptide. (C) Influence of mutations on brightness and efficiency of intramolecular BRET to a bound TMR ligand for 6 nM chimeras complemented with 60 nM VS-HiBiT. (D-E) Binding kinetics of 2.5 nM HaloTag-TMR ligand to 20 nM or 80 nM chimeras, which were complemented with 200 nM or 800 nM VS-HiBiT, respectively.
FIG. 26 A-C. […]

[4] = mammalian cells, among the tested HALOTAG-cpLGBIT chimeras

Row | Molecule | expression ([1]; genome-edited HeLa cells expressing HiBiT-tagged-GAPDH) | BRET efficiency [1, 4] | brightness [1, 4] | brightness [2] | BRET efficiency [3] | binding affinity to VS-HiBiT (VS-HiBiT peptide)
1 | HaloTag-178-(L1-3)cpLgBiT+4 67/68 (E4D, Q42M, M106K, T144D)-179: SEQ ID NO: 93 (protein) GSEIGTGFPFDPHYVEVLGERMHYVDVGPRDGTPVLFLHGNPTSSYVWRNIIPHVAPTHRCIAPDLIGMGKSDKPDLGYFFDDHVRFMDAFIEALGLEEVVLVIHDWGSALGFHWAKRNPERVKGIAFMEFIRPIPTWDEWPEFARETFQAFRTTDVGRKLIIDQNVFIEGTLPMGVVGGSSADQMAQIEEVFKVVYPVDDHHFKVILPYGTLVIDGVTPNKLNYFGRPYEGIAVFDGKKITVTGTLWNGNKIIDERLIDPDGSMLFRVTINSGGTGGSGGTGGSMVFTLDDFVGDWEQTAAYNLDQVLEQGGVSSLLQNLAVSVTPIMRIVRSGENALKIDIHVIIPYEGLRPLTEVEMDHYREPFLNPVDREPLWRFPNELPIAGEPANIVALVEEYMDWLHQSPVPKLLFWGTPGVLIPPAEAARLAKSLPNCKAVDIGPGLNLLQEDNPDLIGSEIARWLSTLEISG | highest | highest | highest |  |  | 
2 | HaloTag-178-(L1-3)cpLgBiT+4 67/68 (E4D, Q42M, M106K, T144D, R112H, V127T, K123E)- 179: SEQ ID NO: 106 (protein) GSEIGTGFPFDPHYVEVLGERMHYVDVGPRDGTPVLFLHGNPTSSYVWRNIIPHVAPTHRCIAPDLIGMGKSDKPDLGYFFDDHVRFMDAFIEALGLEEVVLVIHDWGSALGFHWAKRNPERVKGIAFMEFIRPIPTWDEWPEFARETFQAFRTTDVGRKLIIDQNVFIEGTLPMGVVGGSSADQMAQIEEVFKVVYPVDDHHFKVILPYGTLVIDGVTPNKLNYFGHPYEGIAVFDGEKITTTGTLWNGNKIIDERLIDPDGSMLFRVTINSGGTGGSGGTGGSMVFTLDDFVGDWEQTAAYNLDQVLEQGGVSSLLQNLAVSVTPIMRIVRSGENALKIDIHVIIPYEGLRPLTEVEMDHYREPFLNPVDREPLWRFPNELPIAGEPANIVALVEEYMDWLHQSPVPKLLFWGTPGVLIPPAEAARLAKSLPNCKAVDIGPGLNLLQEDNPDLIGSEIARWLSTLEISG |  |  |  | similar | similar | significantly higher affinity
